# According to the supplement of paper PMC10567573:
# B1: CDC25B (parent)
# chain: KSPIAPCSLDKRVILIFHCEFSSE
# B2: TMEM106C (parent)
# chain: YVTTNVSLIPPRSEQLVNFTGKAE
# Variants of: B1
# Assay: protein stability index of a GFP-peptide fusion (GPS, HEK-293T) (PSI 1-6); higher = more stable
# Conditions: c terminus: a fixed tail appended
# 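Further: lentivirally expressed fusions sorted by FACS into six bins by GFP to DsRed ratio, PSI derived from sequencing read proportions per bin multiplied by bin number.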
row,Variant,protein stability index
1,P3N,2.73
2,P3I,2.38
3,P3A,2.25
4,P3H,2.63
5,P3W,2.17
6,P3L,3.29
7,P3M,3.46
8,P3G,1.9
9,P3Q,3.1
10,P3T,2.17
11,C7K,2.56
12,C7H,3.31
13,C7A,2.03
14,C7G,2.4
15,C7L,3.92
16,C7I,3.17
17,A5Y,3
18,A5D,2.57
19,A5Q,1.42
20,A5N,2.85
21,A5F,2.93
22,A5I,2.65

row,Variant,protein stability index
1,A5H,2.3
2,A5E,2.55
3,A5M,1.72
4,A5L,2.58
5,A5T,2.85
6,A5W,2.46
7,A5S,2.48
8,K1P,3.88
9,K1S,3.48
10,K1G,3.01
11,K1N,1.96
12,K1L,1.86
13,K1F,2.7
14,K1I,1.11
15,P6H,2.23
16,P6R,1.89
17,P6W,3.61
18,P6G,2.54
19,P6F,3.05
20,P6V,1.39
21,P6Q,4.6
22,P6C,2.97

row,Variant,protein stability index
1,P6Y,3.74
2,I4Y,3.53
3,I4D,1.16
4,I4W,2.72
5,I4F,2.53
6,I4K,3.59
7,I4N,2.64
8,I4G,4.68
9,I4M,4.09
10,I4P,2.2
11,I4H,1.94
12,I4S,2.89
13,S2D,3.82
14,S2F,3.02
15,S2I,1.68
16,S2T,3.22
17,S2A,2.37
18,S2M,1.13
19,S2E,3.4
20,S2W,4.11
21,S2Y,3.15

# Variants of: B2
# Assay: as above
# Conditions: c terminus: a fixed tail appended
row,Variant,protein stability index
1,G21T,1.86
2,G21L,1.58
3,G21S,1.6
4,G21V,2.12
5,G21E,2.49
6,G21R,2.32
7,G21Y,3.28
8,G21H,2.1
9,G21M,3.92
10,G21I,2.1
11,G21N,2.75
12,G21D,2.71
13,G21Q,2.3
14,G21F,2.77
15,G21W,2.5
16,G21A,1.99
17,G21P,3.07
18,G21K,1.59
19,G21C,1.83
20,T20N,1.53
21,T20K,2.11
22,T20L,1.99
23,T20F,2.31
24,T20P,2.29
25,T20Y,2.86
26,T20Q,1.66

row,Variant,protein stability index
1,T20A,2.27
2,T20M,3.02
3,T20C,2.34
4,T20S,1.51
5,T20W,2.85
6,T20V,1.84
7,T20H,1.86
8,T20E,2.09
9,T20D,1.95
10,T20R,2.19
11,T20G,2.13
12,T20I,2.08
13,E24L,2.08
14,E24K,1.88
15,E24Y,2.7
16,E24A,2
17,E24Q,2.06
18,E24M,2.05
19,E24V,1.41
20,E24S,2.1
21,E24C,2.32
22,E24P,3.06
23,E24I,2.32
24,E24T,2.75
25,E24F,2.81
26,E24D,2.58

row,Variant,protein stability index
1,E24R,1.48
2,E24H,1.49
3,E24W,2.93
4,E24N,2.92
5,E24G,1.64
6,A23W,2.51
7,A23P,1.77
8,A23D,2
9,A23G,1.91
10,A23T,1.8
11,A23F,2.06
12,A23C,1.84
13,A23S,1.54
14,A23M,1.81
15,A23V,2.3
16,A23I,2.24
17,A23L,1.31
18,A23E,1.65
19,A23H,2.47
20,A23Y,2.44
21,A23K,2.23
22,A23Q,1.74
23,A23R,2.4
24,A23N,1.82
25,F19R,1.68
26,F19Q,2.54

row,Variant,protein stability index
1,F19T,2.65
2,F19S,2.71
3,F19V,2.28
4,F19Y,1.9
5,F19W,2.33
6,K22D,2.08
7,K22Q,1.53
8,K22W,3.19
9,K22M,2.54
10,K22F,2.26
11,K22T,2.14
12,K22N,2.04
13,K22Y,1.61
14,K22A,2.23
15,K22I,1.88
16,K22R,1.8
17,K22G,1.89
18,K22P,1.76
19,K22E,1.78
20,K22S,1.72
21,K22V,2.81
22,K22L,1.96
23,K22C,2.1
24,K22H,1.96
